Here are results for six substances from patent publication US20050069530A1.

This test deals with human type IIA sPLA2 (human) (UniProt P14555). The test is described as follows: cell-based or functional assay.
Sequence of human type IIA sPLA2 (human) (P14555 21-144): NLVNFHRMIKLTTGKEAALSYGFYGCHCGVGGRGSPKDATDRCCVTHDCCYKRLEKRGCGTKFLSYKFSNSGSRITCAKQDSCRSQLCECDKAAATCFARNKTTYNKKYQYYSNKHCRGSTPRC
For the substance PIP (56-67) (peptide), the Mean % Inhibition at fixed peptide concentration [5 µM] worked out at 34.2%.
With PIP (60-67) (peptide), the IC50 of sPLA2 enzyme inhibition (3H-labelled E. coli membranes as substrate) was 5.75 µM.
In turn, PIP (59-67) (peptide) displayed an IC50 of sPLA2 enzyme inhibition (3H-labelled E. coli membranes as substrate) of 3.8 µM and a Mean % Inhibition at fixed peptide concentration [5 µM] of 56.4%.
PIP (58-67) (peptide) returned an IC50 of sPLA2 enzyme inhibition (3H-labelled E. coli membranes as substrate) of 3.67 µM and a Mean % Inhibition at fixed peptide concentration [5 µM] of 59.5%.
On to PIP (57-67) (peptide), for which the Mean % Inhibition at fixed peptide concentration [5 µM] was 14.2%.
D60, 65E-PIP (59-67) (peptide) had an IC50 of sPLA2 enzyme inhibition (3H-labelled E. coli membranes as substrate) of 4.2 µM.
